Assay results published in patent US20250066487A1 (ABL BIO, published 2025).

B1: Urelumab (antibody, V domains shown)
VH: QVQLQQWGAGLLKPSETLSLTCAVYGGSFSGYYWSWIRQSPEKGLEWIGEINHGGYVTYNPSLESRVTISVDTSKNQFSLKLSSVTAADTAVYYCARDYGPGNYDWYFDLWGRGTLVTVSS
VL: EIVLTQSPATLSLSPGERATLSCRASQSVSSYLAWYQQKPGQAPRLLIYDASNRATGIPARFSGSGSGTDFTLTISSLEPEDFAVYYCQQRSNWPPALTFGGGTKVEIK
B2: AB41 (antibody, human IgG4 S228P, kappa, V domains shown)
VH: QVQLQQSGAEVIKPGASVKLSCKASGYTFSSYWMHWVRQAPGQGLEWIGEINPGNGHTNYNEKFKSRATLTGDTSTSTVYMELSSLRSEDTAVYYCARSFTTARAFAYWGQGTLVTVSS
VL: DIVMTQSPAFLSVTPGEKVTITCRASQTISDYLHWYQQKPDQAPKLLIKYASQSISGIPSRFSGSGSGTDFTFTISSLEAEDAATYYCQDGHSFPPTFGQGTKLEIKR
notes: Full-length IgG form; also called anti-4-1BB antibody AB41 (full-length IgG form)
B3: 1A12 (antibody, human IgG4 S228P, lambda, V domains shown)
VH: EVQLLESGGGLVQPGGSLRLSCAASGFTFSGYDMSWVRQAPGKGLEWVSVIYPDDGNTYYADSVKGRFTISRDNSKNTLYLQMNSLRAEDAAVYYCAKHGGQKPTTKSSSAYGMDGWGQGTLVTVSS
VL: QSVLTQPPSASGTPGRRVTISCSGSSSNIGNNYVTWYQQLPGTAPKLLIYADSHRPSGVPDRFSGSKSGTSASLAISGLRSEDEADYYCATWDYSLSGYVFGGGTKLTVLG
notes: Full-length IgG form; also called 1Al2; anti-4-1BB antibody 1A12 (full-length IgG form)

Columns and labels:
[1] = target: T1, human 4-1BB expressed on GloResponse NFκB-luc2/4-1BB Jurkat cells (Promega) (human, UniProt Q07011 24-255); assay: cell-based or functional assay
T1 sequence (Q07011 24-255 limits assumed): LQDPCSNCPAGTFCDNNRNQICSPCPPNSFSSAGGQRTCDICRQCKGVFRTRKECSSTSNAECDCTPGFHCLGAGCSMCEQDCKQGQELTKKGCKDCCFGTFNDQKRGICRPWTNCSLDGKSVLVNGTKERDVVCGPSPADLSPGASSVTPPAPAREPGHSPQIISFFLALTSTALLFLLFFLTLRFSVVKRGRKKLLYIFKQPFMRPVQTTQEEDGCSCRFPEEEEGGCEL

[2] = target: T1, human 4-1BB expressed on GloResponse …; assay: cell-based or functional assay; remark: listed apart in the source
[3] = target: T2, human 4-1BB-Fc protein (Sino Biological) (human, UniProt Q07011 24-186); assay: ELISA, plate coated with human 4-1BB-Fc, detection with anti-human IgG-HRP
T2 construct: Bought protein; not shown: Fc part of the bought fusion protein
T2 sequence (Q07011 24-186 limits assumed): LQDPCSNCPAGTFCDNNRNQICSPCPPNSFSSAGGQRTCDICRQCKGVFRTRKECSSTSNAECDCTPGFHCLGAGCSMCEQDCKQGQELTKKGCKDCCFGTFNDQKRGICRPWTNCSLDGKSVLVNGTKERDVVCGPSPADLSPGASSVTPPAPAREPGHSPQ

Binder | EC50, FcγRIIb-dependent 4-1BB bioassay [1] | Fold of induction (RLU), FcγRIIb-dependent 4-1BB bioassay [1] | EC50, FcγRIIb-independent 4-1BB bioassay [2] | Fold of induction (RLU), FcγRIIb-independent 4-1BB bioassay [2] | EC50 [3]
B1 | 240 pM | 190 fold (RLU) | 537 pM | 14.1 fold (RLU) | 
B2 |  |  |  |  | 200 pM
B3 |  |  |  |  | 180 pM
